Consider 4 molecules from patent US20180186893A1 (NATIONAL RESEARCH COUNCIL OF CANADA, published 2018).

For test [1], the target named is T1, hCA-IX fragment 8 (aa 38-414, +PG+CA+) displayed on yeast as Aga2-HA-CA9-MYC (pPNL6), clone 8B (human, UniProt P32781 19-87; Q16790 38-414). As to the kind of experiment: YSD whole yeast cell ELISA, native, normalised to anti-MYC. For orientation: An ELISA detects its analyte on a solid surface through an enzyme-linked reagent.
For test [2], the target named is T2, hCA-IX fragment 2 (aa 38-136, +PG+) displayed on yeast as Aga2-HA-CA9-MYC (pPNL6), clone 2B (human, UniProt P32781 19-87; Q16790 38-136).
T2 construct: not shown: HA tag; MYC tag
The description is as above.

The next test concerns the target T3, rhCA-XII (human, UniProt O43570 25-291, limits assumed).
T3 construct: Bought; construct not described; also called recombinant human CA-XII (Sino Biologics)
As to the kind of experiment: SPR, antibody captured by anti-human Fc.

The next test concerns the target T4, rhCA-XIV (human, UniProt Q9ULX7 16-290, limits assumed).
T4 construct: Bought; construct not described; also called recombinant human CA-XIV
As to the kind of experiment: SPR, antibody captured by anti-human Fc.

The next test addresses T5, rhCA-IV (human, UniProt P22748 19-283, limits assumed).
T5 construct: Bought; construct not described; also called recombinant human CA-IV
As to the kind of experiment: SPR, antibody captured by anti-human Fc. (In general: Surface plasmon resonance follows binding to a sensor surface in real time, without labels.)

Test [3] has as its target T6, human CA-XII extracellular domain (ECD) (human, UniProt O43570 25-301).
T6 construct: extracellular domain
As to the kind of experiment: SPR, antibody captured by anti-human Fc.

The next test has as its target T7, rmCA-IX (murine, UniProt Q8VHB5 32-389, limits assumed).
T7 construct: Bought; construct not described; also called recombinant murine (rm)CA-IX
As to the kind of experiment: SPR, antibody captured by anti-human Fc.

In test [4] the target is T8, hCA-IX PG domain fragment #14 (aa 37-140) displayed on yeast as Aga2-HA-CA9-MYC (pPNL6), clone 14 A + B (human, UniProt P32781 19-87 (Saccharomyces cerevisiae entry)).
T8 construct: not shown: HA tag; MYC tag
As to the kind of experiment: YSD whole yeast cell ELISA, native PG tiling fragment, normalised to anti-MYC.

The target of test [5] is T9, hCA-IX PG domain fragment #5 (aa 77-91) displayed on yeast as Aga2-HA-CA9-MYC (pPNL6), clone 5 A + B (human, UniProt P32781 19-87 (Saccharomyces cerevisiae entry)).
T9 construct: not shown: HA tag; MYC tag
Described as above.

Test [6] addresses T10, hCA-IX PG domain fragment #12 (aa 67-111) displayed on yeast as Aga2-HA-CA9-MYC (pPNL6), clone 12 A + B (human, UniProt P32781 19-87 (Saccharomyces cerevisiae entry)).
T10 construct: not shown: HA tag; MYC tag
Described as above.

For test [7], the target named is T11, hCA-IX PG domain fragment #6 (aa 87-101) displayed on yeast as Aga2-HA-CA9-MYC (pPNL6), clone 6 A + B (human, UniProt P32781 19-87 (Saccharomyces cerevisiae entry)).
T11 construct: not shown: HA tag; MYC tag
The test is described as above.

Test [8] deals with T12, hCA-IX PG domain fragment #1 (aa 37-51) displayed on yeast as Aga2-HA-CA9-MYC (pPNL6), clone 1 A + B (human, UniProt P32781 19-87 (Saccharomyces cerevisiae entry)).
T12 construct: not shown: HA tag; MYC tag
As to the kind of experiment: YSD whole yeast cell ELISA, native PG tiling fragment.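 Also: monoclonal antibody binding to intact yeast cells displaying the fragment, read by ELISA, with the anti-CA-IX signal normalized against the anti-MYC display signal.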

Test [9] concerns the target T13, hCA-IX PG domain fragment #2 (aa 47-61) displayed on yeast as Aga2-HA-CA9-MYC (pPNL6), clone 2 A + B (human, UniProt P32781 19-87 (Saccharomyces cerevisiae entry)).
T13 construct: not shown: HA tag; MYC tag
The test is described as above.

Test [10] deals with T14, hCA-IX PG domain fragment #10 (aa 126-140) displayed on yeast as Aga2-HA-CA9-MYC (pPNL6), clone 10 A + B (human, UniProt P32781 19-87 (Saccharomyces cerevisiae entry)).
T14 construct: not shown: HA tag; MYC tag
Described as above.

Test [11] deals with T15, hCA-IX PG domain fragment #11 (aa 37-71) displayed on yeast as Aga2-HA-CA9-MYC (pPNL6), clone 11 A + B (human, UniProt P32781 19-87 (Saccharomyces cerevisiae entry)).
T15 construct: not shown: HA tag; MYC tag
Described as above.

Test [12] has as its target T16, hCA-IX PG domain fragment #9 (aa 117-131) displayed on yeast as Aga2-HA-CA9-MYC (pPNL6), clone 9 A + B (human, UniProt P32781 19-87 (Saccharomyces cerevisiae entry)).
T16 construct: not shown: HA tag; MYC tag
Described as above.

For test [13], the target named is T17, hCA-IX PG domain fragment #7 (aa 97-111) displayed on yeast as Aga2-HA-CA9-MYC (pPNL6), clone 7 A + B (human, UniProt P32781 19-87 (Saccharomyces cerevisiae entry)).
T17 construct: not shown: HA tag; MYC tag
The description is as above.

The target in test [14] is T18, hCA-IX PG domain fragment #3 (aa 57-71) displayed on yeast as Aga2-HA-CA9-MYC (pPNL6), clone 3 A + B (human, UniProt P32781 19-87 (Saccharomyces cerevisiae entry)).
T18 construct: not shown: HA tag; MYC tag
Described as above.

In test [15] the target is T19, hCA-IX PG domain fragment #4 (aa 67-81) displayed on yeast as Aga2-HA-CA9-MYC (pPNL6), clone 4 A + B (human, UniProt P32781 19-87 (Saccharomyces cerevisiae entry)).
T19 construct: not shown: HA tag; MYC tag
The test is described as above.

For test [16], the target named is human Carbonic Anhydrase IX (hCA-IX) (human, UniProt Q16790 38-459). As to the kind of experiment: cell-based or functional assay.
For test [17], the target named is T1, hCA-IX fragment 8 (aa 38-414, +PG+CA+) …. As to the kind of experiment: YSD whole yeast cell ELISA, heat-denatured (80 C, 30 min), normalised to anti-MYC.
Test [18] addresses T12, hCA-IX PG domain fragment #1 (aa 37-51) …. As to the kind of experiment: YSD whole yeast cell ELISA, native PG tiling fragment, normalised to anti-MYC.
For test [19], the target named is T15, hCA-IX PG domain fragment #11 (aa …). Described as above.
The target in test [20] is T9, hCA-IX PG domain fragment #5 (aa 77-91) …. As to the kind of experiment: YSD whole yeast cell ELISA, native PG tiling fragment.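 Also: monoclonal antibody binding to intact yeast cells displaying the fragment, read by ELISA, with the anti-CA-IX signal normalized against the anti-MYC display signal.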
The target in test [21] is T10, hCA-IX PG domain fragment #12 (aa …). The description is as above.
Test [22] addresses T20, hCA-IX PG domain fragment #13 (aa 107-140) displayed on yeast as Aga2-HA-CA9-MYC (pPNL6), clone 13 A + B (human, UniProt P32781 19-87 (Saccharomyces cerevisiae entry)).
T20 construct: not shown: HA tag; MYC tag
The test is described as above.

For test [23], the target named is T21, hCA-IX PG domain fragment #8 (aa 107-121) displayed on yeast as Aga2-HA-CA9-MYC (pPNL6), clone 8 A + B (human, UniProt P32781 19-87 (Saccharomyces cerevisiae entry)).
T21 construct: not shown: HA tag; MYC tag
Described as above.

Test [24] deals with T11, hCA-IX PG domain fragment #6 (aa …). Described as above.
Test [25] addresses T22, dimeric CA-IX extracellular domain (ECD) from mouse (mouse, UniProt Q8VHB5 32-390).
T22 construct: extracellular domain
As to the kind of experiment: SPR, antibody captured by anti-human Fc, specific binding yes/no.

In test [26] the target is T23, rhCA-IX ECD dimer (human, UniProt Q16790 38-414). As to the kind of experiment: SPR (ProteOn XPR36), antibody captured by anti-human Fc, 0.74-60 nM antigen flowed, 1:1 model, 25 C.
The target of test [27] is T24, rhCA-IX ECD mixture (monomer + dimer) (human, UniProt Q16790 38-414). As to the kind of experiment: reverse phase protein array, purified antigen; RPPA; ratio native/denatured, purified antigen.
Test [28] has as its target T23, rhCA-IX ECD dimer. As to the kind of experiment: SPR (ProteOn XPR36), mAb captured by anti-mouse Fc, 60 nM antigen flowed, 1:1 model, 25 C.
The target in test [29] is T24, rhCA-IX ECD mixture (monomer + dimer). The description is as above.

Where only a bound is given, the exact number is not on record here.

T4 sequence (Q9ULX7 16-290 limits assumed): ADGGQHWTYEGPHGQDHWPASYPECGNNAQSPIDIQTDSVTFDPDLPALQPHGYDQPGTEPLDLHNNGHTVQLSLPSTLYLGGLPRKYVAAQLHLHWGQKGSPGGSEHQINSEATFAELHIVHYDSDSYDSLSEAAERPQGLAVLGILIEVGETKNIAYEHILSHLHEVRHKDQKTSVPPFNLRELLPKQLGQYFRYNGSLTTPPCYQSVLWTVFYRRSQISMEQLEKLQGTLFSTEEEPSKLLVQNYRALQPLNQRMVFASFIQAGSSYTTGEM
T11 sequence (P32781 19-87 limits assumed): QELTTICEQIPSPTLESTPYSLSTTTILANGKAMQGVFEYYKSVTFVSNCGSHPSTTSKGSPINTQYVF
T10 sequence (P32781 19-87 limits assumed, chain 1 of 2): as the sequence (P32781 19-87 limits assumed) above
T10 sequence (chain (part 2 of 2), as listed by the source limits assumed, chain 2 of 2): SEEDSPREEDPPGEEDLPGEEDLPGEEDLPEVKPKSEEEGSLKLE
T13 sequence (P32781 19-87 limits assumed): as the sequence (P32781 19-87 limits assumed) above
T2 sequence (P32781 19-87 limits assumed, chain 1 of 2, other chains not shown): as the sequence (P32781 19-87 limits assumed) above
T12 sequence (P32781 19-87 limits assumed): as above
T17 sequence (P32781 19-87 limits assumed): as above
T8 sequence (P32781 19-87 limits assumed, chain 1 of 2): as the sequence (P32781 19-87 limits assumed) above
T8 sequence (chain (part 2 of 2), as listed by the source limits assumed, chain 2 of 2): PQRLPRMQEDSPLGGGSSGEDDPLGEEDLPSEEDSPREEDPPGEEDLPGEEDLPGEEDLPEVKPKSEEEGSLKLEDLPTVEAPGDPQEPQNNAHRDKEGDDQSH
T18 sequence (P32781 19-87 limits assumed): as the sequence (P32781 19-87 limits assumed) above
T19 sequence (P32781 19-87 limits assumed): as above
T1 sequence (P32781 19-87 limits assumed, chain 1 of 2, other chains not shown): as the sequence (P32781 19-87 limits assumed) above
T14 sequence (P32781 19-87 limits assumed): as above
T16 sequence (P32781 19-87 limits assumed): as above
T9 sequence (P32781 19-87 limits assumed): as above
T15 sequence (P32781 19-87 limits assumed, chain 1 of 2): as the sequence (P32781 19-87 limits assumed) above
T15 sequence (chain (part 2 of 2), as listed by the source limits assumed, chain 2 of 2): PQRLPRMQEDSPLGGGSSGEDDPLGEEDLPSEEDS
T7 sequence (Q8VHB5 32-389 limits assumed): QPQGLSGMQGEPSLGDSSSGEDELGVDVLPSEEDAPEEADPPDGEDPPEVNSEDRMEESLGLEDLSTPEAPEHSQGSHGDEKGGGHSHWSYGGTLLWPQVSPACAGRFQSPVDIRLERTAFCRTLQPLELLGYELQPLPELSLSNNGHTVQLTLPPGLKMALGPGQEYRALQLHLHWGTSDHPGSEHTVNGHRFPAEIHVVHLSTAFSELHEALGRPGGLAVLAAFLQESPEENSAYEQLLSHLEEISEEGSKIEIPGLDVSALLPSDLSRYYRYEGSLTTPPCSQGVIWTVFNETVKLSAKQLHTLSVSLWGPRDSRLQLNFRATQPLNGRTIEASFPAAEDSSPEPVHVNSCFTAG
T5 sequence (P22748 19-283 limits assumed): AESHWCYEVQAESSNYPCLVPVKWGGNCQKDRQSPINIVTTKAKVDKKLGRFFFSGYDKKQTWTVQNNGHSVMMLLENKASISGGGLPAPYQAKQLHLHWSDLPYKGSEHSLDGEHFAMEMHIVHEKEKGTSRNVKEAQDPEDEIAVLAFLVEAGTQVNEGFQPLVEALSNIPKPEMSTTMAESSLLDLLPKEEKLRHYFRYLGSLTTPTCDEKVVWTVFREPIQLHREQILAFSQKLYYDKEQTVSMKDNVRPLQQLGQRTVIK
T3 sequence (O43570 25-291 limits assumed): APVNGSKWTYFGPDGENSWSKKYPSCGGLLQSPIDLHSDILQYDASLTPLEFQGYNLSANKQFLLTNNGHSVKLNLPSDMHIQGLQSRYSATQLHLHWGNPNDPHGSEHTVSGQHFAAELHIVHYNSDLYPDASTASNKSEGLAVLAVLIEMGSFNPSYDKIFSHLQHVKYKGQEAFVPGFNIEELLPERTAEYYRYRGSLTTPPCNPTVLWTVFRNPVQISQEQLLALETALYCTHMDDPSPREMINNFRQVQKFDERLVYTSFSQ
T6 sequence (O43570 25-301): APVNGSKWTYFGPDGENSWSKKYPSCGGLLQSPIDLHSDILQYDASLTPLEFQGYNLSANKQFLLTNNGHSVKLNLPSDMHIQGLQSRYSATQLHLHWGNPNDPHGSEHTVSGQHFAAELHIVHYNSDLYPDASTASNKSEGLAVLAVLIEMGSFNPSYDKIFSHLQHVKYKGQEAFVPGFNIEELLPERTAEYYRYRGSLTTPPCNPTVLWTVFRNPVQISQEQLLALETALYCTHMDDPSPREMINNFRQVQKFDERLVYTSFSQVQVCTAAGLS
T21 sequence (P32781 19-87 limits assumed): as the sequence (P32781 19-87 limits assumed) above
T20 sequence (P32781 19-87 limits assumed, chain 1 of 2): as the sequence (P32781 19-87 limits assumed) above
T20 sequence (chain (part 2 of 2), as listed by the source limits assumed, chain 2 of 2): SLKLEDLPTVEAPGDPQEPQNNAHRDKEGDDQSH
T22 sequence (Q8VHB5 32-390): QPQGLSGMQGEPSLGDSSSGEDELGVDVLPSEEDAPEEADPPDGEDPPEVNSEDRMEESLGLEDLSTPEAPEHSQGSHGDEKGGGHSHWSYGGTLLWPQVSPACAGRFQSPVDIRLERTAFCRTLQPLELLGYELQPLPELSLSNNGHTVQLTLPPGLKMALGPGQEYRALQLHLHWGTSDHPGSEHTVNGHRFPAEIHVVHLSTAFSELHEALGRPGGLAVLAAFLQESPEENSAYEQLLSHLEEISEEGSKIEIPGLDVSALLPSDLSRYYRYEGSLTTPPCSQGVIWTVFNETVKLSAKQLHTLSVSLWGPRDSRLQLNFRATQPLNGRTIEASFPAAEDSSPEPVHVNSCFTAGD

B1: c11H9 (chimeric 11H9, human IgG1 / human kappa 1) (antibody, V domains shown)
VH: EVQLVESGGRLVQPKGSLKLSCAASGFTFNTYAMYWIRQAPGKGLEWVARIRSKSNNYAIYYADSVKDRFTISRDDSQSMLYLQMNNLKTEDTAMYYCVRGWDWFAYWGQGTPVTVSA
VL: DVVMTQTPLSLPVSLGDQASISCRSSQSLVHSNGNTYLHWYLQKPGQSPKLLIYKVSNRFSGVPDRFSGSGSGTDFTLKISRVEAEDLGVYFCSQNTHVPPTFGGGTKLEIKR
notes: Expressed in CHO cells; also called chimeric (c) 11H9; c1H9
Turning to B1, the binding result is reported as “binds” in test [1]; “binds” in test [2]; “no binding (tested: 100 nM)” with rhCA-XII; “no binding (tested: 100 nM)” in the test with rhCA-XIV; “no binding (tested: 100 nM)” with rhCA-IV; “no binding (tested: 100 nM)” in [3]. The binding result with rmCA-IX is on record as “no binding (tested: 100 nM)”; in test [4], “binds”; in test [5], “binds”; in test [6] it was “binds”; in test [7], “binds”; in [8], “no binding”. In addition, the binding result in [9], in [10], in test [11], in [12], in test [13] and in [14] was “no binding” in each case. Further, in test [15], the binding result is “no binding”.

B2: c12H8 (chimeric 12H8, human IgG1 / human kappa 1) (antibody, V domains shown)
VH: QIQLVQSGPELKKPGETVKISCKASGYTFTNYGMNWVQQAPGKGLKWMGWINTYTGEPTYADDFKGRFAFSLETSASTAYLQINNLKNEDMATYFCARGGIATPTSYWGQGTTLTVSS
VL: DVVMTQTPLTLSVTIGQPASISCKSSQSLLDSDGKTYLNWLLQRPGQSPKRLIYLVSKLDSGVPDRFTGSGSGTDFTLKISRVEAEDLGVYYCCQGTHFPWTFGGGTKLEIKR
notes: Expressed in CHO cells
Usually Kd stands for the constant that tells how readily two partners part at equilibrium. The low end stands for tighter binding, the high end for weaker binding. Regarding B2, the “IC50 (nM), cell viability of sk-rc-52 cells, surrogate ADC assay (Mab-Zap saporin secondary antibody)” value in test [16] worked out at 23.6 nM. Besides, the binding result in [2] was “binds”; in test [17] it was “binds”; with rhCA-XII, “no binding (tested: 100 nM)”; with rhCA-XIV, “no binding (tested: 100 nM)”; with rhCA-IV, “no binding (tested: 100 nM)”; in test [3], “no binding (tested: 100 nM)”. Moreover, the binding result in the test with rmCA-IX is “no binding (tested: 100 nM)”; in [18] it was “binds”; in [4], “binds”; in test [19], “binds”; in test [9], “no binding”; in [10], “no binding”. Also, the binding result in test [20], in test [12], in test [21], in test [13], in [14] and in test [22] was “no binding” throughout. In addition, the binding result in [23], in test [24], in test [15] and in [25] was “no binding” throughout. Besides, in the test with rhCA-IX ECD dimer [26], the Kd worked out at 0.979 nM.

B3: mAb 12H8 (hybridoma-derived) (antibody, mouse IgG1, V domains shown)
VH: B2 VH
VL: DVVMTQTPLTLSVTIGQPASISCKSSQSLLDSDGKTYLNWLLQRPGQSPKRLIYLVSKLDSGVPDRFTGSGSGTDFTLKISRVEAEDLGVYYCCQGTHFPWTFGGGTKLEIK
notes: also called clone 12H8 (fusion F101); 12HD8
For orientation: koff means a measure of how fast the partners let go of each other. In the case of B3, the “Ratio (A)/(B), native over denatured” value in test [27] was 1.11. In the test with rhCA-IX ECD dimer [28], binding was characterised by a dissociation constant (Kd) of 0.143 nM. Besides, in test [29], the koff was less than 1e-05 s⁻¹.

B4: c12H8-DM1 (antibody, V domains shown)
VH: B2 VH
VL: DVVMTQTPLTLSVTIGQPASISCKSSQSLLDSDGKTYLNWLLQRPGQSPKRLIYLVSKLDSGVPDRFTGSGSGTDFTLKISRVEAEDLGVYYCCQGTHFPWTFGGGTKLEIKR
modifications: DM1 (mertansine) conjugated with SMCC-DM1, target DAR 3.5; sites not stated
For the molecule B4, the “IC50 (nM), cell viability of sk-rc-52 cells, ADC assay” value in test [16] turned out to be 17.9 nM.
